The subject of assay [1] is GRB2 phosphorylation in HER14 cells. In words: GRB2 phosphorylation in (32P) orthophosphate-labelled, EGF stimulated HER14 cells. The assay is classed as cell-based. To be noted: vanadate (200 μM) at 37° C. for 20 min prior to the addition of EGF. As for the experimental part:
Labeling cells with (^32P)-orthophosphate were carried out as previously described (Li et al., Mol. Biol. Cell 2:641-649, 1991). Briefly, confluent HER14 cells starved for 16 hrs in 1% FCS/DMEM were incubated for two hours in Pi-free media, and labeled for two hours in Pi-free media, dialyzed FBS, 1 mCi/ml orthophosphate (carrier free, 314.5-337.5 TBq/mmole, purchased form NEN, Wilmington, Del.) at 37° C. Where appropriate, cells were incubated with vanadate (200 μM) at 37° C. for the last 20 minutes of cell labeling. Cells were then stimulated for two minutes with EGF (250 ng/ml) or PDGF (50 ng/ml), rapidly washed 2 times with ice cold phosphate-buffered saline (PBS), and solubilized immediately in lysis buffer (10 mM Tris-Cl pH 7.6, 50 mM NaCl, […] sodium pyrophosphate, 50 mM sodium fluoride, 100 μM sodium orthovanadate, 5 μM ZnCl2, 1 mM PMSF and 0.5% Triton-X-100). […]
To determine if the failure to detect tyrosine phosphorylated GRB2 was due to the rapid dephosphorylation by a protein tyrosine phosphatase, a potent tyrosine phosphatase inhibitor, vanadate, was tested for its effects upon GRB2 phosphorylation. (^32p) orthophosphate-labelled cells were incubated with or without vanadate at 37° C. for 20 min prior to the addition of EGF, and GRB2 phosphorylation was assessed as described above.

Assay [2] has as its target tyrosine phosphorylated wild-type EGF receptor, full length (human) (UniProt P00533). In words: immunoprecipitated autophosphorylated EGFR, anti-PLC-γ blot with 125I-protein A, bands counted.
The target in assay [3] is trpE/GAP SH2 fusion protein (GAP residues 171-448) (UniProt P00895). The experiment in a line: filter binding: 32P-labelled probe on fusion protein spotted on nitrocellulose.
In the next assay the target is T1, EGFR-C (Homo sapiens, UniProt P00533).
T1 construct: EGFR-C represents a deletion mutant containing the cytoplasmic domain of the EGF receptor produced by baculovirus-infected SF9 cells; made in house; host or cells: baculovirus-infected SF9 insect cells
In words: Binding of trpE/GAP SH2 fusion protein to baculovirus expressed EGFR-C (immunoprecipitation / immunoblot). Conditions: phosphorylated vs non-phosphorylated EGFR-C, FIG. 12A. The protocol: FIGS. 12A and 12B are representations of a gel pattern showing binding of EGFR-C to trpE proteins. In FIG. 12A, EGFR-C (0.5 μg) was immunoprecipitated with antibody C and washed. MnCl2 alone or MnCl2 and ATP were then added to facilitate autophosphorylation of TrpE or trpE/GAP SH2 (approximately 2 μg). The immunoprecipitates were separated on a 10% SDS-gel, transferred to nitrocellulose and immunoblotting was performed with anti-trpE. For comparison, about 0.1 μg of trpE or trpE/GAP SH2 lysate was loaded directly on to the gel (right panel of 12A). In FIG. 12B, trpE or trpE/GAP SH2 was immunoprecipitated with anti-trpE antibodies and washed. Phosphorylated or non-phosphorylated EGFR-C (0.5 μg) was then added and allowed to bind as above. After washing, samples were separated on a 10% gel, transferred to nitrocellulose and probed with antibody C. The two samples on the right represent 0.5 μg of phosphorylated and non-phosphorylated kinase loaded directly onto the gel (exposure time: 2 h). The preparation of trpE fusion proteins containing the GAP SH2 domain (GAP residues 171-448, 10 FIG. 9B) has been described by Moran, M. F. et al., Proc. Natl. Acad. Sci. USA 87: 8622-8626 (1990). Bacterial lysates containing trpE/GAP SH2 fusion proteins were prepared by resuspending 1 g of bacteria in 3 ml of 50 mM Tris pH 7.5, 0.5 mm EDTA, 0.1 mm PMSF. […]

The target of assay [4] is T2, tyrosine phosphorylated EGFR-C (intracellular domain of the EGF receptor, baculovirus expressed) (human, UniProt P00533 669-1210, tyrosine autophosphorylated with MnCl2 and ATP; positions not given).
T2 construct: domain: intracellular domain; Produced in baculovirus-infected SF9 cells; also called EGFR cytoplasmic domain; phosphorylated kinase
The experiment in a line: EGFR-C immunoprecipitated with antibody C, anti-trpE immunoblot. As for the experimental part: In FIG. 12A, EGFR-C (0.5 μg) was immunoprecipitated with antibody C and washed. […] The immunoprecipitates were separated on a 10% SDS-gel, transferred to nitrocellulose and immunoblotting was performed with anti-trpE. […] Phosphorylated or non-phosphorylated EGFR-C (0.5 μg) was then added and allowed to bind as above. After washing, samples were separated on a 10% gel, transferred to nitrocellulose and probed with antibody C. The two samples on the right represent 0.5 μg of phosphorylated and non-phosphorylated kinase loaded directly onto the gel (exposure time: 2 h).
For orientation: Immunoblotting shows a protein as a band on a membrane.

As to `[O]=[V]([O-])([O-])[O-]` [Vanadate, vanadate], in assay [1], the “effect on GRB2 phosphorylation” value was “did not result in detectable GRB2 phosphorylation”. The molecule “PLC-γ (phosphatidylinositol specific phospholipase C-γ), non-phosphorylated, from 3TP1 cell lysate (enzyme)” came in with a percent remaining bound after three washes with HNTG in assay [2] of 50%. The molecule “tyrosine phosphorylated C-terminal CNBr fragment of the EGF receptor (EGFR 984/1186) (from UniProt P00533 1008-1210)” came in with an amount of spotted fusion protein at which binding was still detected in assay [3] of under 5 ng.

B1: trpE/GAP SH2 fusion protein: bacterially expressed trpE fusion protein containing the GAP SH2 domain (GAP residues 171-448) (protein)
chain: MQTQKPTLELLTCEGAYRDNPTALFHQLCGDRPATLLLESADIDSKDDLKSLLLVDSALRITALGDTVTIQALSGNGEALLALLDNALPAGVESEQSPNCRVLRFPPVSPLLDEDARLCSLSVFDAFRLLQNLLNVPKEEREAMFFGGLFSYDLVAGFEDLPQLSAENNCPDFCFYLAETLMVIDHQKKSTRIQASLFAPNEEEKQRLTARLNELRQQLTEAAPPLPVVSVPHMRCECNQSDEEFGGVVRLLQKAIRAGEIFQVVPSRRFSLPCPSPLAAYYVLKKSNPSPYMFFMQDNDFTLFGASPESSLKYDATSRQIEIIPLTAPPTNQWYHGKLDRTIAEERLRQAGKSGSYLIRESDRRPGSFVLSFLSQMNVVNHFRIIAMCGDYYIGGRRFSSLSDLIGYYSHVSCLLKGEKLLYPVAPPEPVEDRRRVRAILPYTKVPDTDEISFLKGDMFIVHNELEDGWMWVTNLRTDEQGLIVEDLVEEVGREEDPHEGKIWFHGKISKQEAYNLLMTVGQVCSFLVRPSDNTPGDYSLYFRTNENIQRFKICPTPNNQFMMGGRYYNSIGDIIDHYRKEQIVEGYYLKEPVPMQDQEQ
Consider B1, for which the “binding to EGFR-C” value with EGFR-C is reported as “bound only to the tyrosine phosphorylated EGFR-C”.

B2: trpE protein alone (other, UniProt P00895 1-323, looked up)
chain: MQTQKPTLELLTCEGAYRDNPTALFHQLCGDRPATLLLESADIDSKDDLKSLLLVDSALRITALGDTVTIQALSGNGEALLALLDNALPAGVESEQSPNCRVLRFPPVSPLLDEDARLCSLSVFDAFRLLQNLLNVPKEEREAMFFGGLFSYDLVAGFEDLPQLSAENNCPDFCFYLAETLMVIDHQKKSTRIQASLFAPNEEEKQRLTARLNELRQQLTEAAPPLPVVSVPHMRCECNQSDEEFGGVVRLLQKAIRAGEIFQVVPSRRFSLPCPSPLAAYYVLKKSNPSPYMFFMQDNDFTLFGASPESSLKYDATSRQIEI
notes: Control for the trpE/GAP SH2 fusion; also called bacterial protein alone
For the molecule B2, the binding result in assay [4] was “no binding”.

B3: trpe protein: bacterial trpE protein alone, used as control for the fusion protein (protein)
chain: MQTQKPTLELLTCEGAYRDNPTALFHQLCGDRPATLLLESADIDSKDDLKSLLLVDSALRITALGDTVTIQALSGNGEALLALLDNALPAGVESEQSPNCRVLRFPPVSPLLDEDARLCSLSVFDAFRLLQNLLNVPKEEREAMFFGGLFSYDLVAGFEDLPQLSAENNCPDFCFYLAETLMVIDHQKKSTRIQASLFAPNEEEKQRLTARLNELRQQLTEAAPPLPVVSVPHMRCECNQSDEEFGGVVRLLQKAIRAGEIFQVVPSRRFSLPCPSPLAAYYVLKKSNPSPYMFFMQDNDFTLFGASPESSLKYDATSRQIEI
For the molecule B3, in the assay with EGFR-C, the “binding to EGFR-C” value was “did not bind”.

The record behind these values is patent US6391584B1, “Expression-cloning method for identifying target proteins for eukaryotic tyrosine kinases and novel target proteins” (New York University Medical Center, priority 1991, dated 2002).
